In patent publication US20090081724A1:

Assays:
[1] = molecular target: AD-CaM (Calmodulin, encoded by the CALM2 gene, fused to the activation domain) (human) (UniProt P0DP24); test: cell-based or functional assay
[2] = molecular target: AD-CaM (Calmodulin, encoded by the CALM2 gene, fused to the activation domain) (human) (UniProt P0DP24); test: yeast two-hybrid, CPRG β-gal assay, against DB-Q2C wt

DB-KCNQ2 wild-type (wt) C-term BAIT, sequence (O43526 other isoform, or with tags, fused parts or gaps limits assumed): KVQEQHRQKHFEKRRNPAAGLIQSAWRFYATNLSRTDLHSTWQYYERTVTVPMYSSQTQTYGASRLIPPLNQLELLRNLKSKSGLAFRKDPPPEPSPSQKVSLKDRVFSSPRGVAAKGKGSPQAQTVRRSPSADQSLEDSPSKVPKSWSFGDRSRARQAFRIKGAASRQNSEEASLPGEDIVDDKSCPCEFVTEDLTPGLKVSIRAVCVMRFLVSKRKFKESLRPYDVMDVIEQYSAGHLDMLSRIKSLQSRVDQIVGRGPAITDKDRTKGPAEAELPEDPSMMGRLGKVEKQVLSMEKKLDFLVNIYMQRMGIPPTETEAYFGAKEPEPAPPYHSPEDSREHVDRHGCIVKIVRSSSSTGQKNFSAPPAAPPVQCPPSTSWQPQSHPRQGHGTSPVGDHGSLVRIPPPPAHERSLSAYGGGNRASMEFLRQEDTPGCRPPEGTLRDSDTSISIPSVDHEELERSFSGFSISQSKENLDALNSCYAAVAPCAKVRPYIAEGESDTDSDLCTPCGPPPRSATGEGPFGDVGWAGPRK

| units of β-gal activity (CPRG assay, liquid culture) (units β-gal activity) [1] | fold increase in CaM binding affinity against wt [2] [fold] | Substance |
| --- | --- | --- |
| 0.26 | 5 | DB-Q2C L619R mutant (from UniProt O43526 319-872) |
| 0.05 |  | DB-KCNQ2 wild-type (wt) C-term BAIT (from UniProt O43526 319-872) |
